Laboratory results taken from the supplement of paper PMC10126150.
± gives the standard deviation of the averaged measurements.

Tested on: ATP
Test: switch fluorescence ratio, 500 uM ATP over buffer (Cy3 cluster intensity, sum of 5 cycles each) (fold (ratio)); higher = stronger signal-on switching upon ATP binding; sequences stand for … in TCGTCGGCAGCGTCAGATGTGTATAAGAGACAGTTTTTTTTTTTTTTTTTTTTTTTTT…TC
Details: aptamer strand: ATP DNA aptamer (quencher-CACCTGGGGGAGTATTGCGGAGGAAGG + anchor), 100 nM annealed; ATP concentration: 500 uM
In short: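 Per cluster, summed Cy3 intensity from the target cycles was divided by that from the buffer cycles to give the fluorescence ratio, then averaged per switch-domain sequence. Clusters outside 100-1000 RFU were excluded. The Cy3-labelled switching-strand clusters, on a modified Illumina MiSeq flow-cell, were annealed to 100 nM quencher-labelled ATP aptamer and imaged in selection buffer, then after 15 min with 500 uM ATP at 22 °C, for five cycles with NaOH stripping and re-annealing between them.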
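Further: ATP exposure 15 min at 22 °C before imaging.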

| Sequence | switch fluorescence ratio |
| --- | --- |
| TACGTCGCTG | 0.971 ± 0.023 |
| TTTTGGGGC | 1.04 ± 0.013 |
| CAATGGGAG | 0.988 ± 0.014 |
| TTAATAGGTG | 1.14 ± 0.015 |
| AATTCAGATG | 0.9623 ± 0.0077 |
| GCTGATGTTC | 1.0082 ± 0.001 |
| AAAACTTCTT | 1 ± 0.013 |
| GAAGTGGCTT | 0.9801 ± 0.0014 |
| TTGGGGTTCA | 0.9752 ± 0.0084 |
| GATTGGGCTC | 1.02 ± 0.036 |
| GAGGCCCTGA | 0.971 ± 0.035 |
| GGGTTTGGGT | 1.01 ± 0.053 |
| CTATCTGTAG | 0.994 ± 0.03 |
| GTTACCGTTT | 1.02 ± 0.053 |
| GCGTTGGGAC | 1.042 ± 0.0036 |
| GTGAAATTTT | 1.01 ± 0.039 |
| CAGCGTATTG | 1.04 ± 0.037 |
| AATGTCGACG | 0.994 ± 0.036 |
| AGTTGGAATT | 0.979 ± 0.012 |
| AATGGGCCCT | 0.979 ± 0.047 |
| TTAACTTGTG | 0.986 ± 0.031 |
| CGTTAAGGGT | 0.98 ± 0.031 |
| AGGCTCATGG | 1.028 ± 0.0089 |
| TGGGGAATTT | 0.987 ± 0.023 |
| TGTTTGGGAA | 1 ± 0.038 |

| Sequence | switch fluorescence ratio |
| --- | --- |
| TAAAAAAAGC | 1.031 ± 0.0015 |
| AGTAAGATGT | 0.976 ± 0.034 |
| TGGTTGTGGG | 0.996 ± 0.028 |
| GAAAACATAG | 1.01 ± 0.02 |
| CCTTTATCGG | 0.997 ± 0.012 |
| CGGCAAAGTA | 0.972 ± 0.065 |
| AGGAGGGCGT | 0.969 ± 0.018 |
| AGTTGAAGGG | 0.973 ± 0.018 |
| AATCTAAGGT | 0.983 ± 0.064 |
| TGGGGGGAAC | 1.02 ± 0.019 |
| CATTACGTGC | 0.996 ± 0.016 |
| TAACAGGCGG | 0.991 ± 0.028 |
| ATTTTACGAA | 1.028 ± 0.0065 |
| AACTTTTTAT | 1.04 ± 0.042 |
| TGAGGGTTGG | 1.01 ± 0.027 |
| ATGTCAGGGT | 0.9732 ± 0.0086 |
| TATCGGGATA | 0.994 ± 0.021 |
| TTTCCATGGA | 0.984 ± 0.029 |
| TTACGGTGTT | 1.1 ± 0.099 |
| GGTTGTCTTA | 0.9726 ± 0.0018 |
| GGAACATGGG | 1.004 ± 0.0024 |
| TTGGGGGATG | 0.985 ± 0.0088 |
| GATGAGCCCT | 1.03 ± 0.015 |
| TTGCGGTAGC | 1 ± 0.016 |
| TGGGCGAGAG | 1.02 ± 0.034 |

| Sequence | switch fluorescence ratio |
| --- | --- |
| TGCATGGCAA | 1.03 ± 0.013 |
| TCGAGCTTGT | 1 ± 0.024 |
| CATTACTGTA | 1.24 ± 0.076 |
| TTAAGCATGT | 1.01 ± 0.017 |
| TGGTACGGGG | 1.02 ± 0.033 |
| CCGTTTTTTG | 1 ± 0.032 |
| TAATAGGAAG | 1.26 ± 0.43 |
| GTCGGATGTG | 0.954 ± 0.044 |
| GCGGAGTATT | 1.02 ± 0.012 |
| AGGGGGTGTA | 1.02 ± 0.014 |
| GTTTGCTACG | 1.005 ± 0.004 |
| AAAACGTGGG | 1.02 ± 0.022 |
| TTCTCTTTTT | 1.02 ± 0.036 |
| CTCCGTGGGA | 1.9 ± 0.68 |
| TTAGTCAGGG | 1.02 ± 0.024 |
| GAGGTTGGGC | 0.993 ± 0.03 |
| GGGTGCTGGG | 0.999 ± 0.042 |
| CGCGCGGGTG | 1.121 ± 0.011 |
| CTGGTTGTCT | 1.01 ± 0.006 |
| AGGGTTATTC | 1 ± 0.013 |
| GGTATGGTAC | 1.086 ± 0.0055 |
| ACGCCCACTA | 1.38 ± 0.1 |
| CCCAGCTTGT | 1.035 ± 0.0031 |
| GTGGTAATTG | 0.972 ± 0.016 |
| CGAGGTTCTG | 0.97 ± 0.039 |

| Sequence | switch fluorescence ratio |
| --- | --- |
| TTGGACGCCG | 1.07 ± 0.041 |
| TTGTTTTTAG | 0.988 ± 0.04 |
| CTTGAGTGTG | 0.9827 ± 0.006 |
| CGGGATTCGT | 1 ± 0.057 |
| GTGGGGGTGT | 1.05 ± 0.055 |
| CGTTTCTTTG | 0.966 ± 0.019 |
| TCCTGGGGGG | 1.04 ± 0.046 |
| TGTATTGAAC | 1.03 ± 0.0024 |
| CATTTAAAAA | 0.919 ± 0.032 |
| TGTACCGTGC | 1.07 ± 0.068 |
| ATTATGCCTG | 1.06 ± 0.044 |
| CGCTGGCCTT | 0.975 ± 0.016 |
| GGGTCCGCTG | 1.06 ± 0.07 |
| TTGGGCAACT | 1.06 ± 0.07 |
| TTTACTATTT | 0.988 ± 0.035 |
| TTGATTCTGA | 0.992 ± 0.034 |
| TCTGGGAGGG | 1.03 ± 0.047 |
| CTGCGGTAAA | 0.96953 ± 0.00082 |
| GCTAAAAGCT | 1.02 ± 0.011 |
| CCGGCCCACA | 1.266 ± 0.0065 |
| GGCAGCGTGG | 0.994 ± 0.041 |
| TAAGGGGATC | 0.987 ± 0.059 |
| AGACGGAGGG | 1.015 ± 0.0017 |
| CGACTCGAAA | 1.02 ± 0.016 |
| AAAGTGGGCG | 1.13 ± 0.18 |

| Sequence | switch fluorescence ratio |
| --- | --- |
| AAACGGGGTA | 1.01 ± 0.033 |
| GGGGAAGCCA | 0.979 ± 0.024 |
| TTGGCCCGGG | 1.01 ± 0.059 |
| GAGTTAGGGC | 0.99 ± 0.011 |
| GGACTATGGT | 0.981 ± 0.014 |
| CGTATCCGGT | 1.03 ± 0.0019 |
| GGGTGAAGTT | 0.984 ± 0.036 |
| TGTGTGTGGG | 1.03 ± 0.012 |
| GGGAGGGCGT | 0.981 ± 0.034 |
| TGTAAATTTT | 1.03 ± 0.041 |
| TGGGGTGATC | 1 ± 0.029 |
| ATTGGGACAG | 0.994 ± 0.031 |
| CGGTTAAGGG | 0.982 ± 0.038 |
| ATTTTCGGCT | 0.99 ± 0.0036 |
| AGTTCCGTTG | 1.028 ± 0.0097 |
| TGATGTTGAC | 1 ± 0.013 |
| ATAGGGGCTA | 0.988 ± 0.02 |
| TTTTATATAC | 1.14 ± 0.076 |
| ACATTGTGCG | 0.969 ± 0.048 |
| TTTGGTTGAA | 1.03 ± 0.088 |
| GGGAGGTCAG | 0.992 ± 0.035 |
| GGGAGAAAAG | 0.984 ± 0.014 |
| TACAAGGCTT | 0.993 ± 0.027 |
| ATTCTTCTCA | 1.02 ± 0.028 |
| TTCGTGACTT | 1.02 ± 0.025 |

| Sequence | switch fluorescence ratio |
| --- | --- |
| GGACATTGG | 1.03 ± 0.02 |
| CAGATAGGTT | 1.09 ± 0.14 |
| GGGCACATGG | 1.02 ± 0.029 |
| CGTTTGGCAG | 1.019 ± 0.0025 |
| TAAAAAAAAT | 1.02 ± 0.033 |
| GGAAGGAGAT | 1.003 ± 0.0093 |
| TAACCACCTT | 1.12 ± 0.044 |
| TTTACCGGTA | 1.01 ± 0.023 |
| TATTTGCGCG | 0.967 ± 0.037 |
| TTAATAGGG | 1 ± 0.022 |
| GAGTGTCGGC | 0.9963 ± 0.0052 |
| AAGGGGAGAA | 0.9872 ± 0.008 |
| TATGTGTTTT | 1.031 ± 0.0034 |
| TTCATCGGGT | 1.01 ± 0.014 |
| CTTTTGGGCG | 1.01 ± 0.056 |
| CCAACATGAT | 1.017 ± 0.007 |
| GATAGTGAAG | 0.993 ± 0.015 |
| TACTTAAAGT | 1 ± 0.022 |
| ACCAAGTTTT | 1.019 ± 0.0072 |
| TCACTATTTA | 1.013 ± 0.0082 |
| GTGGCTGGGT | 0.981 ± 0.015 |
| GGGGTTGTGT | 0.996 ± 0.026 |
| TTTGTCGTAA | 0.999 ± 0.0014 |
| CCTACATTG | 1 ± 0.02 |
| GGTTTAAATT | 1 ± 0.018 |

| Sequence | switch fluorescence ratio |
| --- | --- |
| TGGACGAGAG | 1.01 ± 0.019 |
| ATATCTGCTT | 0.978 ± 0.035 |
| TAACAATATT | 0.99495 ± 0.00094 |
| ATTATCGGTA | 0.974 ± 0.058 |
| GGAAAGACCG | 1 ± 0.012 |
| ATTATGGTTA | 0.9884 ± 0.0097 |
| TGGAAAAGCT | 1.06 ± 0.034 |
| TGTGTTTGTT | 0.998 ± 0.017 |
| GACACTTGTA | 1.02 ± 0.025 |
| AGGGTTTACG | 1.05 ± 0.045 |
| AGATCCGGGT | 0.992 ± 0.025 |
| TGGGAGGTTT | 1.05 ± 0.18 |
| AGGCGGACGT | 1 ± 0.0089 |
| AGATATGGTT | 0.994 ± 0.048 |
| TGCTCGGCGT | 0.99846 ± 0.00041 |
| TTGGCTTTTT | 1.01 ± 0.015 |
| TGGAGTTAGG | 0.995 ± 0.013 |
| GATTGTAGGT | 1 ± 0.015 |
| TATATATTTT | 1.01 ± 0.029 |
| GGTATCCGGG | 0.974 ± 0.019 |
| CCTCTGGTTT | 2.84 ± 0.37 |
| GCCACTTACA | 1.36 ± 0.025 |
| ACGGGTGGCA | 0.986 ± 0.019 |
| TTAGGCGTTC | 0.9892 ± 0.0096 |
| AATCAGGCCT | 1.05 ± 0.043 |

| Sequence | switch fluorescence ratio |
| --- | --- |
| CTCATAACAG | 0.996 ± 0.015 |
| ACCCGACGAG | 1.03 ± 0.039 |
| CGCTTTAGGT | 1.02 ± 0.012 |
| TTAGGAATGG | 1.005 ± 0.0015 |
| TTAGGGGAGC | 0.976 ± 0.021 |
| TTAATGCTGG | 1 ± 0.033 |
| AATTGTGGTT | 0.97 ± 0.043 |
| TAAGATAGGA | 0.982 ± 0.013 |
| TCGTATTACA | 1.011 ± 0.0035 |
| ACTATGGCGG | 1.03 ± 0.032 |
| TCGGATTATG | 0.9669 ± 0.0066 |
| TACCGGCTCA | 0.999 ± 0.017 |
| AAATGTGAAT | 1 ± 0.029 |
| CATTTACTAT | 1.05 ± 0.021 |
| CAGTATGTAG | 0.957 ± 0.02 |
| AGGGGCAGTA | 0.993 ± 0.032 |
| GTGTGCAGTG | 0.954 ± 0.01 |
| ACTCGGAATT | 1.12 ± 0.019 |
| AGGTAGTTC | 0.96 ± 0.1 |
| TTATAAGTGG | 0.9907 ± 0.0072 |
| GGGTGGAGCT | 1 ± 0.019 |
| TTTCACGGTA | 1.15 ± 0.11 |
| CTCAAGGGGC | 1.14 ± 0.11 |
| AATATGTGGT | 0.972 ± 0.015 |
| TAAGGGGAAT | 1 ± 0.039 |
